doi:10.1101/2025.02.16.638571 (bioRxiv, 2025)

B1: LN1F9 Fab (Fab, V domains shown)
VH: EVKLVESGGGLVKPGGSLKLSCAASGFSFRNYAMSWVRQSPEKRLEWVAEVSSGGGYTYYPDTVTGRFTISRDNAKNILYLEMSSLRSEDTAMYYCTRDPDSSGYLAWFAYWGQGTLVTVSA
VL: DILLTQSPASLSASVGETVTITCRASENINSYLAWYQQKQGKSPQLLVYNAKTLAEGVPSRFSGSGSDTQFSLKINTLQPEDFGTYYCQHHSGTPYTFGGGTKLEIK
B2: S1E2 Fab (Fab, V domains shown)
VH: QMQLQESGPGLVKPSQSLSLTCSVTGYSITSGYYWNWIRQFSGNKLEWMGYINHDGSKNYNPSLKNRISITRDTSKNQFFLKLNSVTTEDTATYYCARDYGSYYYPMDYWGQGTSVTVSS
VL: EIVLTQSPPIMSASPGEKVTITCSASSSVTFMHWFQQKPGTSPKLWIFSTSNLASGVPARFSGSGSGTSYSLTISRMEAEDAATYYCQQRSSYPFTFGSGTKLEIK
B3: LN3D3 Fab (Fab, V domains shown)
VH: EVKLEESGPELVKPGASVKMSCKASGYTFTNYVMHWVKQKPGQGLEWIGYVNPYNDGTQYNEKFRDKATLTSDKSSSTVYMELNSLTSEDSAVYYCTRGDYPYWVFEVWGAGTTVTVSS
VL: EIQMTQSPATLSVTPGDSVSLSCRASQSISNNLHWYQQKSHESPRLLIKYASQSISGIPSRFSGSGSGTDFTLSINNLETEDFGMYFCQHSDSWPFTFGSGTKLEIK
B4: S2B10 Fab (Fab, V domains shown)
VH: QMQLQESGPGLVKPSQSLSLTCTVTGYSITSDYAWNWIRQFPRNKLEWMGFITYSGSTSYNPSLKSRISLTRDTSKNQFFLQLSSVTTEDTATYYCARSGANWDWFAYWGQGTLVTVSA
VL: DIQMTQSPASLAVSLGQRATISCRASESVDNYGNSFMHWYQQKPGQPPKLLIYRASKLESGIPARFSGSGSRTDFTLTINPVEADDVATYHCQQSNEDPWTFGGGTKLEIK
B5: mAb S1E2 (antibody, V domains shown)
VH: B2 VH
VL: B2 VL
B6: mAb LN3D3 (antibody, V domains shown)
VH: B3 VH
VL: B3 VL
B7: mAb S2B10 (antibody, V domains shown)
VH: B4 VH
VL: B4 VL
B8: mAb LN1F9 (antibody, V domains shown)
VH: B1 VH
VL: B1 VL
B9: human ephrin-B2 (residues 27-167) (receptor)
chain: SIVLEPIYWNSSNSKFLPGQGLVLYPQIGDKLDIICPKVDSKTVGQYEYYKVYMVDKDQADRCTIKKENTPLLNCAKPDQDIKFTIKFQEFSPNLWGLEFQKNKDYYIISTSNGSLEGLDNQEGGVCQTRAMKILMKVGQD

Molecular target: deglycosylated NiVM G head domain without the His-tag (residues 176-602) (Nipah virus, Malaysia strain, …, UniProt Q9IH62)
Assay: crystal structure

Row | Binder | binding result
1 | B1 | binds

Molecular target: T1, NiVM G head domain protein (residues 176-602) (Nipah virus, Malaysia strain (NiVM), UniProt Q9IH62)
Assay: cryo-EM structure

Row | Binder | binding result
2 | B2 | binds
3 | B3 | binds
4 | B4 | binds

Molecular target: NiVM G ectodomain (residues 96-602) (Nipah virus, Malaysia strain, …, UniProt Q9IH62)
Assay: ELISA

Row | Binder | binding result
5 | B5 | binds
6 | B6 | binds
7 | B7 | binds
8 | B8 | binds

Molecular target: MojV G head domain (residues 176-625) (Mojiang virus, GenBank YP_009094095.1, UniProt W8TIR7)
Assay: ELISA

Row | Binder | binding result
9 | B5 | no binding (tested: 1 μg/mL)
10 | B6 | no binding (tested: 1 μg/mL)
11 | B7 | no binding (tested: 1 μg/mL)
12 | B8 | no binding (tested: 1 μg/mL)

Molecular target: LayV G head domain (residues 176-625) (Langya virus, GenBank UUV47206.1, UniProt A0AAX3C924)
Assay: ELISA

Row | Binder | binding result
13 | B5 | no binding (tested: 1 μg/mL)
14 | B6 | no binding (tested: 1 μg/mL)
15 | B7 | no binding (tested: 1 μg/mL)
16 | B8 | no binding (tested: 1 μg/mL)

Molecular target: T1, NiVM G head domain protein (residues …)
Assay: BLI

Row | Binder | binding result
17 | B5 | binds
18 | B6 | binds
19 | B7 | binds
20 | B8 | binds

Molecular target: T2, NiVM G head domain protein (residues 176-602) (Nipah virus, Malaysia strain (NiVM), UniProt Q9IH62 176-602)
T2 sequence: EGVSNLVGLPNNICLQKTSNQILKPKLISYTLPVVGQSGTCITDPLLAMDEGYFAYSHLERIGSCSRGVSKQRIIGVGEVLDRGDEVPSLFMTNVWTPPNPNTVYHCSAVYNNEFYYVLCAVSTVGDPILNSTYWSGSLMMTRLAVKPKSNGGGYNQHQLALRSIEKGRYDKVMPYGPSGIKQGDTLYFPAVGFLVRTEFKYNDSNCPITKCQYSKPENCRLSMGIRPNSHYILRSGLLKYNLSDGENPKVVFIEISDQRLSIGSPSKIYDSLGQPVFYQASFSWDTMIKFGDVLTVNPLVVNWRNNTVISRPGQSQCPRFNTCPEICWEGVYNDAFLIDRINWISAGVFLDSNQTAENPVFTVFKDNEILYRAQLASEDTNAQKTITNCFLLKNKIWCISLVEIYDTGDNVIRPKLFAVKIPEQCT
Assay: BLI

Row | Binder | binding result
21 | B9 | binds
